{
  "source": "paper PMC2553580",
  "about": "(Nucleic Acids Research, 2008)",
  "proteins": {"B1": {"name": "long isoform of Sox5 (natural protein)", "chain": "not shown"}},
  "biological_target": "the molecule itself",
  "assay": "native gel or EMSA",
  "data": [
    {"protein": "B1", "values": [
      {"measurement": "stoichiometry N", "result": 2}
    ]}
  ]
}
